Source: PMC7747717 (Nature Communications, 2020)
Values belong to the binder of their own block, whether it stands above or below them.

Columns and labels:
Assay in all cases: cryo-EM structure; endogenous human Pol III purified from HeLa POLR1C-GFP cells, not cross-linked, apo, 4.0 Å
Conditions in all cases: both partners purified
[1] = biological target: T1, RPC8, stalk subunit of purified human Pol III (human (endogenous in HeLa), UniProt Q9Y535 1-204)
T1 construct: RPC8, stalk subunit of RNA polymerase III, human, endogenous; source: endogenous, HeLa, purified within Pol III
T1 sequence (looked up): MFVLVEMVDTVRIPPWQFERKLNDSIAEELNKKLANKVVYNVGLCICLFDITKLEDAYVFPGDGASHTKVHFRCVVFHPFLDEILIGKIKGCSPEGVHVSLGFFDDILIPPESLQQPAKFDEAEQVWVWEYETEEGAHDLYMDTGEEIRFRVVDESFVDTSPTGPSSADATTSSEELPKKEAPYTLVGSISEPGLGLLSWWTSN

[2] = biological target: T2, RPC5, subunit of purified human Pol III (human (endogenous in HeLa), UniProt Q9NVU0 1-708)
T2 construct: RPC5, subunit of the TFIIF-like RPC4/5 heterodimer of RNA polymerase III, human, endogenous; the C-terminal extension (RPC5EXT) was not visible in the EM map; also called POLR3E; source: endogenous, HeLa, purified within Pol III
T2 sequence (looked up): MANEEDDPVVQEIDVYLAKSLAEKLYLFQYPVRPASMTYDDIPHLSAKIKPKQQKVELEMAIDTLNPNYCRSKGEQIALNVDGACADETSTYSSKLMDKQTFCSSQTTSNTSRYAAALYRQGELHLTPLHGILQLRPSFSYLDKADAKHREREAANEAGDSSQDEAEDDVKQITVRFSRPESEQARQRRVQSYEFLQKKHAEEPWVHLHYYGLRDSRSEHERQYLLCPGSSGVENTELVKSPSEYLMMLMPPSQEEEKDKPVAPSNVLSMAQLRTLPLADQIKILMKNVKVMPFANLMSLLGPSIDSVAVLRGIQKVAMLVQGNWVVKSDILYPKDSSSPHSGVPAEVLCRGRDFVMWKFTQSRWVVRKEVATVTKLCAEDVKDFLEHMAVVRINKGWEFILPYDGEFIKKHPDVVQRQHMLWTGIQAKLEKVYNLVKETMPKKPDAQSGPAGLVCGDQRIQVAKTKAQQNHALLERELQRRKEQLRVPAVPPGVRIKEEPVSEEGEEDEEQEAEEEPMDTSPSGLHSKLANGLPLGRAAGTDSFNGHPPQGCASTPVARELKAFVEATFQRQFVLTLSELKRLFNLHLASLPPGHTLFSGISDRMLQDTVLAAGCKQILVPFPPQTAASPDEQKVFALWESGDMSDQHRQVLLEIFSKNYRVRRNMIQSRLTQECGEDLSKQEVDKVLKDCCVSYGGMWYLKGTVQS

[3] = biological target: RPABC1, subunit of purified human Pol III (human (endogenous in HeLa), UniProt P19388 1-210)

- binding result [1]: binds
B1: RPC9, stalk subunit of purified human Pol III (natural protein)
chain: not shown
notes: RPC9, stalk subunit of RNA polymerase III, human, endogenous; source: endogenous, HeLa, purified within Pol III

- binding result [2]: binds
B2: RPC4, subunit of purified human Pol III (natural protein, human (endogenous in HeLa), UniProt P05423 1-398, looked up)
chain: MSEGNAAGEPSTPGGPRPLLTGARGLIGRRPAPPLTPGRLPSIRSRDLTLGGVKKKTFTPNIISRKIKEEPKEEVTVKKEKRERDRDRQREGHGRGRGRPEVIQSHSIFEQGPAEMMKKKGNWDKTVDVSDMGPSHIINIKKEKRETDEETKQILRMLEKDDFLDDPGLRNDTRNMPVQLPLAHSGWLFKEENDEPDVKPWLAGPKEEDMEVDIPAVKVKEEPRDEEEEAKMKAPPKAARKTPGLPKDVSVAELLRELSLTKEEELLFLQLPDTLPGQPPTQDIKPIKTEVQGEDGQVVLIKQEKDREAKLAENACTLADLTEGQVGKLLIRKSGRVQLLLGKVTLDVTMGTACSFLQELVSVGLGDSRTGEMTVLGHVKHKLVCSPDFESLLDHKHR
notes: RPC4, subunit of the TFIIF-like RPC4/5 heterodimer of RNA polymerase III, human, endogenous; also called POLR3D; source: endogenous, HeLa, purified within Pol III

- binding result [3]: binds
B3: RPC1, largest subunit of purified human Pol III (natural protein)
chain: MVKEQFRETDVAKKISHICFGMKSPEEMRQQAHIQVVSKNLYSQDNQHAPLLYGVLDHRMGTSEKDRPCETCGKNLADCLGHYGYIDLELPCFHVGYFRAVIGILQMICKTCCHIMLSQEEKKQFLDYLKRPGLTYLQKRGLKKKISDKCRKKNICHHCGAFNGTVKKCGLLKIIHEKYKTNKKVVDPIVSNFLQSFETAIEHNKEVEPLLGRAQENLNPLVVLNLFKRIPAEDVPLLLMNPEAGKPSDLILTRLLVPPLCIRPSVVSDLKSGTNEDDLTMKLTEIIFLNDVIKKHRISGAKTQMIMEDWDFLQLQCALYINSELSGIPLNMAPKKWTRGFVQRLKGKQGRFRGNLSGKRVDFSGRTVISPDPNLRIDEVAVPVHVAKILTFPEKVNKANINFLRKLVQNGPEVHPGANFIQQRHTQMKRFLKYGNREKMAQELKYGDIVERHLIDGDVVLFNRQPSLHKLSIMAHLARVKPHRTFRFNECVCTPYNADFDGDEMNLHLPQTEEAKAEALVLMGTKANLVTPRNGEPLIAAIQDFLTGAYLLTLKDTFFDRAKACQIIASILVGKDEKIKVRLPPPTILKPVTLWTGKQIFSVILRPSDDNPVRANLRTKGKQYCGKGEDLCANDSYVTIQNSELMSGSMDKGTLGSGSKNNIFYILLRDWGQNEAADAMSRLARLAPVYLSNRGFSIGIGDVTPGQGLLKAKYELLNAGYKKCDEYIEALNTGKLQQQPGCTAEETLEALILKELSVIRDHAGSACLRELDKSNSPLTMALCGSKGSFINISQMIACVGQQAISGSRVPDGFENRSLPHFEKHSKLPAAKGFVANSFYSGLTPTEFFFHTMAGREGLVDTAVKTAETGYMQRRLVKSLEDLCSQYDLTVRSSTGDIIQFIYGGDGLDPAAMEGKDEPLEFKRVLDNIKAVFPCPSEPALSKNELILTTESIMKKSEFLCCQDSFLQEIKKFIKGVSEKIKKTRDKYGINDNGTTEPRVLYQLDRITPTQVEKFLETCRDKYMRAQMEPGSAVGALCAQSIGEPGTQMTLKTFHFAGVASMNITLGVPRIKEIINASKAISTPIITAQLDKDDDADYARLVKGRIEKTLLGEISEYIEEVFLPDDCFILVKLSLERIRLLRLEVNAETVRYSICTSKLRVKPGDVAVHGEAVVCVTPRENSKSSMYYVLQFLKEDLPKVVVQGIPEVSRAVIHIDEQSGKEKYKLLVEGDNLRAVMATHGVKGTRTTSNNTYEVEKTLGIEAARTTIINEIQYTMVNHGMSIDRRHVMLLSDLMTYKGEVLGITRFGLAKMKESVLMLASFEKTADHLFDAAYFGQKDSVCGVSECIIMGIPMNIGTGLFKLLHKADRDPNPPKRPLIFDTNEFHIPLVT
notes: RPC1, largest subunit of RNA polymerase III, human, endogenous; also called POLR3A; source: endogenous, HeLa, purified within Pol III
